Tests used:
[1] = target: mouse NgR1, endogenous in acute hippocampal slices (mouse) (UniProt Q99PI8); experiment: cell-based or functional assay
[2] = target: rat NgR1 (Nogo-66 receptor), full-length, expressed on cells (rat) (UniProt Q99M75); experiment: cell-based or functional assay
Chain of rat NgR1 (Nogo-66 receptor), full-length, expressed on cells (rat) (Q99M75 27-447 limits assumed): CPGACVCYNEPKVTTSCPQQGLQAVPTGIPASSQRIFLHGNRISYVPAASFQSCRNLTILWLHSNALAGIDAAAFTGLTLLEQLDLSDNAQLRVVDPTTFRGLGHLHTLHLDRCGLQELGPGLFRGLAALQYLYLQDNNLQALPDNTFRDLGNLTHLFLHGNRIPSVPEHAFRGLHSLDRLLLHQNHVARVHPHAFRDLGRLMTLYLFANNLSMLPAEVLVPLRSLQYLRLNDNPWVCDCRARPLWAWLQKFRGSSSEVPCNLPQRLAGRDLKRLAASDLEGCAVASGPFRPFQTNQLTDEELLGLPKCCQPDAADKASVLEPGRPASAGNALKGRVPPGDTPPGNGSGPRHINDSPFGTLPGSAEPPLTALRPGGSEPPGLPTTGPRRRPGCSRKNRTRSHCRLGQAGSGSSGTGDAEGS

Chain of mouse NgR1, endogenous in acute hippocampal slices (mouse) (Q99PI8 27-447): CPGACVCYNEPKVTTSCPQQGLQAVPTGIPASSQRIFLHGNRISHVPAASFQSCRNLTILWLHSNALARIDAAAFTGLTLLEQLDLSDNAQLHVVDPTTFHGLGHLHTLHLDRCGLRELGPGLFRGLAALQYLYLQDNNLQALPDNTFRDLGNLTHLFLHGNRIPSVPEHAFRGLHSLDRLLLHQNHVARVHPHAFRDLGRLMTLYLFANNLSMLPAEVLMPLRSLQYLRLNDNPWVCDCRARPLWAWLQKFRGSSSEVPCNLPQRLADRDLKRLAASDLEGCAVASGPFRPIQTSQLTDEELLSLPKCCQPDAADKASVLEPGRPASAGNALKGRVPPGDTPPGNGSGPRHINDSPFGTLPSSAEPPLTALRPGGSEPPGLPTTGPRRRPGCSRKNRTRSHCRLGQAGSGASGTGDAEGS

FGF2 (Peprotech), unlabeled (ligand)
HFS-induced LTP at Schaffer collateral-CA1 synapses, mean fEPSP % of baseline, NgR1 null slices with FGF2 (10 µg/ml) (% of baseline) [1]: 165 | HFS-induced LTP at Schaffer collateral-CA1 synapses, mean fEPSP % of baseline, wild-type slices with FGF2 (10 µg/ml) (% of baseline) [1]: 139 | percentage of cells with processes longer than two cell bodies in diameter, PC12^NgR1 line NgR1-1, 25 ng/ml FGF2 [2]: 5.6% | percentage of cells with processes longer than two cell bodies in diameter, PC12^NgR1 line NgR1-2, 25 ng/ml FGF2 [2]: 7.2% | percentage of cells with processes longer than two cell bodies in diameter, control PC12 cells (very low endogenous NgR1), 25 ng/ml FGF2 [2]: 19.8%
